The results in this text go back to patent publication US20180371429.

Positions count from the first letter of the chain named.

T1: α-fructosyl-valyl-histidyl-leucyl-threonyl-prolyl-glutamyl-glutamyl-lysine (not fully specified)
T1 chain: VHLTPEEK

B1: CFP-T7-H38-V (protein)
chain: MTSNRADTRVIVVGGGGTIGSSTALHLVRSGYAPANITVLDTFEIPSAQSAGHDLNKIMGIDHVNKVNLQMSLEARQMWKEDELFQPFFHNTGRMDCEHTPKGIEKLKKLYQKLHDAGAGLEKTHAWLDNEDEILSKMPLLQRDQIQGWKAIWSQDGGWLAAAKAINAIGQFLKERGVKFGFGGAGSFKQPLFDDEGTTCIGVETADGTKYYADKVVLAAGAWSPTLVDLEDQCCSKAWVYAHIQLTPEEAAEYKGVPVVYNGEFGFFFEPDEFGVIKVCDEFPGFSRFKEHQPYGAPSPKRISVPRSHAKHPTDTYPDASEVSIKKAIATFLPRFQDKELFNRALCWCTDTADSTLLMCEHPKWKNFILATGDSGHSFKILPNVGKYVVELIEGRLPEEMAYQWRWRPGGDALKSRRAAPPKDLADMPGWKHDPKL
B2: CFP-T7-H38-GY (protein)
chain: B1 chain with V64G, L110Y
B3: CFP-T7-H38-T (protein)
chain: B1 chain with V64T
B4: CFP-T7-H38-G (protein)
chain: B1 chain with V64G
B5: CFP-T7-H38-S (protein)
chain: B1 chain with V64S
B6: CFP-T7-H38-GF (protein)
chain: B1 chain with V64G, L110F
B7: CFP-T7-H38-I (protein)
chain: B1 chain with V64I
B8: CFP-T7-H38-L (protein)
chain: B1 chain with V64L
B9: CFP-T7-H37 (protein)
chain: B1 chain with V64R
B10: CFP-T7-H38-GH (protein)
chain: B1 chain with V64G, L110H
B11: CFP-T7-H38-A (protein)
chain: B1 chain with V64A
B12: CFP-T7-H38-M (protein)
chain: B1 chain with V64M
B13: CFP-T7-H38-GYS (protein)
chain: B1 chain with V64G, H99S, L110Y
B14: CcFX-62D/63H/102K/106K (protein)
chain: MAPSRANTSVIVVGGGGTIGSSTALHLVRSGYTPSNITVLDTYPIPSAQSAGNDLNKIMGIDHRNKVDLQLSLEARQMWREDDLFKEYFHNTGRLDCAHGEKGLAKLRQAYQALLDANAGLEETTEWLDSEDEILKKMPLLDREQIKGWKAVYSQDGGWLAAAKAINAIGEYLRAQGVKFGFGGAGSFKQPLLAEGVCIGVETVDGTRYYADKVVLAAGAWSPVLVDLEDQCVSKAWVYAHIQLTPEEAAEYKNVPVVYNGDVGFFFEPDEHGVIKVCDEFPGFTRFKQHQPYGAKAPKRISVPRSAAKHPTDTYPDASEKSIRKAIATFLPKFTEKELFNRHLCWCTDTADAALLMCEHPEWKNFVLATGDSGHTFKLLPNIGKHVVELLEGTLAEDLAHAWRWRPGTGDALKSRRAAPAKDLADMPGWKHDDVVKSKL
B15: CcFX-62D/63H/102K/106K-64L (protein)
chain: B14 chain with R64L
B16: CcFX-62D/63H/102K/106K-64T (protein)
chain: B14 chain with R64T
B17: NvFX-62D/63H/106K/110L (protein)
chain: MTTPRKETTVLIIGGGGTIGSSTALHLLRAGYTPSNITVLDTYPIPSAQSAGNDLNKIMGIDHRNKVDLQLSLEARDMWRNDALFRPFFHNTGRLDCESSAEGVEKLRRLYQKLVEAGVGLEETHEWLDSEEAILEKAPLLQREEIEGWKAIWSEEGGWLAAAKAINAIGEELQRQGVRFGFGGAGSFKRPLFADDGTTCIGVETVDGTQYHADKVVLAAGAWSPALVDLEEQCCSKAWVYAHMQLTPEEAAVYKGCPVVYHGDVGFFFEPNENGVIKVCDEFPGFTRFKQHQPYGAPAPKPVSVPRSHAKHPTDTYPDASEESIKRAVSTFLPRFKDKPLFNRALCWCTDTADSALLICEHPRWKNFILATGDSGHSFKLLPIIGKHVVELVEGRLADDLAEAWRWRPGQGDARKSIRAAPAKDLADMPGWKHDQDSESR
B18: NvFX-62D/63H/106K/110L-64S (protein)
chain: B17 chain with R64S
B19: NvFX-62D/63H/106K/110L-64M (protein)
chain: B17 chain with R64M
B20: NvFX-62D/63H/106K/110L-64T (protein)
chain: B17 chain with R64T
B21: PnFX-62D/63H/106K/110L/113K/351S (protein)
chain: MAPSRANTSVIVVGGGGTIGSSTALHLVRSGYTPSNVTVLDAYPIPSSQSAGNDLNKIMGVDHRNPVDLQLALEARQMWNEDELFKKFFHNTGRLDCAHGEKDIAKLKSLYQKLVDAGLDATNEWLDSEDEILKRMPLLSRDQIKGWKAIFSKDGGWLAAAKAINAVGEYLRDQGVRFGFYGAGSFKAPLLAEGVCIGVETVDGTRYYADKVVLAAGAWSPTLVELHEQCVSKAWVYGHIQLTPEEAARYKNSPVVYNGDVGFFFEPNEHGVIKVCDEFPGFTRFKMHQPFGAKAPKRISVPRSHAKHPTDTIPDASDVSIRRAIATFMPQFKNKKMFNQAMCWCTDTADSALLICEHPEWKNFVLATGDSGHSFKLLPNIGKHVVELLEGTLADDLAHAWRWRPGSGDALKSRRSAPAKDLADMPGWNHDKPRANL
B22: PnFX-62D/63H/106K/110L/113K/351S-64S (protein)
chain: B21 chain with R64S
B23: CFP-DH2 (protein)
chain: MTSNRADTRVIVVGGGGTIGSSTALHLVRSGYAPANITVLDTFPIPSAQSAGHDLNKIMGIDHRNKVNLQMSLEARQMWKEDELFQPFFHNTGRMDCEHTPKGIEKLKKLYQKLHDAGAGLEKTHAWLDNEDAILSKMPLLQRDQIQGWKAIWSQDGGWLAAAKAINAIGQFLKERGVKFGFGGAGSFKQPLFDDEGTTCIGVETADGTKYYADKVVLAAGAWSPTLVDLEDQCCSKAWVYAHIQLTPEEAAKYKGCPVVYHGEFGFFFEPDEFGVIKVCDEFPGFSRFKEHQPYGAPSPKRISVPRSHAKHPTDTYPDASEVSIKKAIATFLPRFKDKPLFNRALCWCTDTADSTLLMCEHPKWKNFILATGDSGHSFKILPNVGKYVVELIEGRLPEEMAYQWRWRPGGDALKSRRAAPPKDLADMPGWKHD
B24: CFP-DH3 (protein)
chain: B23 chain with R64G

In the data set the target is T1, α-fructosyl-valyl-histidyl-leucyl-threon ….
Protein B1 gave a Specific activity (mU/mg), 10 µM αF8P of 86 mU/mg.

Take B2: the Specific activity (mU/mg), 10 µM αF8P amounted to 174 mU/mg.

Take B3: the Specific activity (mU/mg), 10 µM αF8P was 78.7 mU/mg.

Take B4: the Specific activity (U/mg), 1 mM αF8P was 6.33 U/mg; the Specific activity (mU/mg), 10 µM αF8P worked out at 95.9 mU/mg; the “fold improvement of specific activity on αF8P against CFP-T7-H37” value is listed as “by 1.51 to 1.75 times”.

B5 registered a Specific activity (mU/mg), 10 µM αF8P of 89.7 mU/mg.

Consider B6, for which the Specific activity (mU/mg), 10 µM αF8P turned out to be 145 mU/mg.

Turning to B7, the Specific activity (mU/mg), 10 µM αF8P is 78.7 mU/mg.

As for B8, the Specific activity (mU/mg), 10 µM αF8P was found to be 84.3 mU/mg.

Protein B9 came in with a Specific activity (U/mg), 1 mM αF8P of 4.18 U/mg and a Specific activity (mU/mg), 10 µM αF8P of 44.4 mU/mg.

The protein B10 registered a Specific activity (mU/mg), 10 µM αF8P of 143 mU/mg.

The protein B11 returned a Specific activity (U/mg), 1 mM αF8P of 3.26 U/mg.

In the case of B12, the Specific activity (mU/mg), 10 µM αF8P worked out at 84.4 mU/mg.

B13 showed a Specific activity (mU/mg), 10 µM αF8P of 196 mU/mg.

For the protein B14, the Specific activity (mU/mg), 10 µM αF8P came to 1.3 mU/mg.

B15 displayed a Specific activity (mU/mg), 10 µM αF8P of 2 mU/mg.

Protein B16 came in with a Specific activity (mU/mg), 10 µM αF8P of 1.5 mU/mg.

B17 showed a Specific activity (mU/mg), 10 µM αF8P of 0.3 mU/mg.

As to B18, the Specific activity (mU/mg), 10 µM αF8P came to 0.37 mU/mg.

B19 yielded a Specific activity (mU/mg), 10 µM αF8P of 0.42 mU/mg.

As to B20, the Specific activity (mU/mg), 10 µM αF8P is 0.38 mU/mg.

Turning to B21, the Specific activity (mU/mg), 10 µM αF8P is 2 mU/mg.

As for B22, the Specific activity (mU/mg), 10 µM αF8P worked out at 2.2 mU/mg.

B23 gave a Specific activity (U/mg), 1 mM αF8P of 2.8 U/mg.

Consider B24, for which the Specific activity (U/mg), 1 mM αF8P stood at 4.9 U/mg and the “fold improvement of specific activity on αF8P against CFP-DH2” value is “by 1.51 to 1.75 times”.
